Experiment: soluble on expression in E. coli; label from the status in PepcDB or PDB records

Sequence | soluble on expression in E. coli
MSLENVTMGFWYVSPRRGPHRTTRQISAGTWEEVRPNYTTPVADAMDRLMKTTPEDIAGRLLLLHGPPGTGKTSALRTLARSWRDWCQVDCVLDPERLFSDVGYLMDIAIGEEDGTGKGRWRLLLLEDCDELIRGEAKHTAGQALSRLLNLTDGLLGQGRNVLVGVTTNEDLERLHPAVVRPGRCLARIEVGPLTRREAVNWLGTEEGVGREGATLAELYALRRGTSPTSLPEPREGAEGHHHHHH | soluble
MSLEPDPDYVEPRLEGPQKQAASEIIEDVRKGGFHVSLIDGVTGSGKTEVYFEAVAETLRQGKQVLILLPEIALTAAFLERFQDRFGAKPAEWHSDLSPRMREKVWRQAVTGEIKVVAGARSALFLPFDNLGLIIVDEEHDPAYKQEDRVFYNARDMAVVRARIAEFPVVLVSATPSVESQVNGSSGRYNTIHLHTRFGDAAMPDLHLVDMRRHPPERGGFLSPVLLRGIGKTIEKGEQSLLFLNRRGYAPLTLCRVCGHRFQCPQCSSWLVEHRFRNQLQCHQCGHNEPTPDHCPECGTFDHLVACGPGVERIAEEVEKHFPEARTIVLSSDLMGVKRLRLELEAIVKGEADIVIGTQLVAKGHNFPLMTLVGIVDADLGLANGDPRAAERTFQLLSQVTGRAGRTGLKSHGLLQTYQPQHPVMQAIVSGDASAFYEREIVEREKAVLPPFGRLASIIVSADTRAEAETHARGLRAAAPQVTGIMLLGPAEAPLALIRGRHRFRLLVHGRRNSDMQSFLRTLLASGPKERGSVHVQLDIDPQSFLEGHHHHHH | soluble
MSLEQCYTDVTEFAIPASTQKLYLSPVLDGFNSEIIAYNLSTSPNLEQVQTMLEQAFTEKHYENTILHSDQGWQYQHDSYHQFLEGKGIQASMSRKGNSQDNGMMESFFGILKSEMFYGYEKTFKSLNQLEQAIVDYIDYYNNKRIKVKLKGLSPVQYRTKSFGEGHHHHHH | soluble
MSLERKKYNFNSEWRLQIGDFPEAKQSQFDDSRWKAVTLPHAFNEDEAFKVSIEQLTDTVVWYRKHFRIPASGKKQKVFIEFEGVRQAGDFYLNGQYLGKHENGVMAAGFDLTPYIKEGDNVLAVRTDNDWMYREKSTNSKFQWNDRNFNANYGGLPKNVFLYVTDEVYQTLPLYSNLKTTGVYIYAKDIDVKGRTATIHAESEVKNDSREPRQFSYQVVLLDADGKQVKSFEGEKVTLQGGETRVVKAASKVNNLHFWSWGYGYLYTVQTILKDNKNQVFDEVSTRTGFRKTRFAEGKIWLNDRVIQMKGYAQRTSNEWPAVGLSVPAWLSDYSNGLVVKGNGNLVRWMHVTPWKQDVESCDRVGLIQAMPAGDSEKDRTGRQWDQRTELMRDAIIYNRNNPSILFYECGNKGISREHMIEMKAIRDQYDPFGGRAIGSREMLDIREAEYGGEMLYINKSEHHPMWATEYCRDEGLRKYWDEYSYPFHKEGDGPLHRNQPATDYNHNQDMLAIAMIRCWYDYWRERPGTGRRVSSGGAKIIFSDTNTHHRGEENYRRSGVTDPMRIEKDAFFAHQVMWNGWVDTEEDNTYIIGHWNYPANTVKPVYVVSTGEEVELFLNSQSLGKGKREYNFLFTFDNVAFKAGKLEAVSYNKAGKEISRYAVSTVGEPAGLKLTTIQNPEGFHADGADLALIQVEVVDKDGKRCPLDNRTIQFDLKGNAEWRGGIAQGKDNYILNTSLPVECGINRALIRSTTQAGKITLTAKAEGLPSATITLETLPVKVSNGLSTYLPQMTLKGNLDKGKTPLTPSYKDTKRDIRIVSAKAGANNETVNQSFDDNERSEWMNDGKLSTAWITYTLEKEAAIDDICIKLNGWRSRSYPLEVFAGNTMIWSGDTNKSLGYVHLNVEKPVRSKQITIRLKGNTSDQDAFGQITEVAAKAANDMELEAKANKNNANLRIIEIEFLEAIKEGHHHHHH | soluble
MSLESMLSHPPIPIADMAEHTERLKANDSLKLSQEYESIDPGQQFTWEHSNLEVNKPKNRYANVIAYDHSRVILQPIEGIMGSDYINANYVDGYRRQNAYIATQGPLPETFGDFWRMVWEQRSATIVMMTRLEEKSRIKCDQYWPNRGTETYGFIQVTLLDTIELATFCVRTFSLHKNGSSEKREVRQFQFTAWPDHGVPEYPTPFLAFLRRVKTCNPPDAGPIVVHCSAGVGRTGCFIVIDAMLERIKPEKTVDVYGHVTLMRSQRNYMVQTEDQYSFIHEALLEAVGCGNTEVPARSLYAYIQKLAQVEPGEHVTGMELEFKRLANSKAHTSRFISANLPCNKFKNRLVNIMPYESTRVCLQPIRGVEGSDYINASFIDGYRQQKAYIATQGPLAETTEDFWRMLWENNSTIVVMLTKLREMGREKCHQYWPAERSARYQYFVVDPMAEYNMPQYILREFKVTDARDGQSRTVRQFQFTDWPEQGVPKSGEGFIDFIGQVHKTKEQFGQDGPISVHCSAGVGRTGVFITLSIVLERMRYEGVVDIFQTVKMLRTQRPAMVQTEDEYQFCYQAALEYLGSFDHYATEGHHHHHH | soluble
MSLETDDQYYRAIKKIKEAAEASNRAYLTSSKLADMLGISQQSASRIIIDLEKNGYITRTVTKRGQILNITEKGLDVLYTEFADLSRILAIKNNVVITGTVTSGMGEGRYYVARKQYIIQFQEKLGIIPYLGTLNIKVDQASLPELRKIRGFRGIHIEGFKTEDRTFGSVKAFPAKIQNIPCFVIMPERTVYTDVIEIISDKYLREEINLHDGDRVSVEVYTEGHHHHHH | soluble
MSLETINNSAKKQPGLYISGQYKPSVSVFSNFSVKETNVPTKQLIALKKDINSVAVGSNATTGISNPGNFTIPYTAEFQDNVANFNGAVGYSFPDSLRIEIEGFHEKFDVKNPGGYTQVKDAYRYFALARDLKDGFFEPKAEDTGVYHTVMKNDGLSILSTMVNVCYDFSVDELPVLPYICAGMGINAIEFFDALHVKFAYQGKLGISYQLFTKVNLFLDGYYHQVIGNQFKNLNVNHVYTLKESPKVTSAVATLDIAYFGGEVGIRFTFEGHHHHHH | not soluble
MSLEVKVGLAPMAGYTDSAFRTLAFEWGADFAFSEMVSAKGFLMNSQKTEELLPQPHERNVAVQIFGSEPNELSEAARILSEKYKWIDLNAGCPVRKVVKEGAGGALLKDLRHFRYIVRELRKSVSGKFSVKTRLGWEKNEVEEIYRILVEEGVDEVFIHTRTVVQSFTGRAEWKALSVLEKRIPTFVSGDIFTPEDAKRALEESGCDGLLVARGAIGRPWIFKQIKDFLRSGKYSEPSREEILRTFERHLELLIKTKGERKAVVEMRKFLAGYTKDLKGARRFREKVMKIEEVQILKEMFYNFIKEVEGGSHHHHHH | soluble
MSLEVTTPGKLFIAGEYAVVEPGHPAIIVAVDQFVTVTVEETTDEGSIQSAQYSSLPIRWTRRNGELVLDIRENPFHYVLAAIHLTEKYAQEQNKELSFYHLKVTSELDSSNGRKYGLGSSGAVTVGTVKALNIFYDLGLENEEIFKLSALAHLAVQGNGSCGDIAASCYGGWIAFSTFDHDWVNQKVATETLTDLLAMDWPELMIFPLKVPKQLRLLIGWTGSPASTSDLVDRVHQSKEEKQAAYEQFLMKSRLCVETMINGFNTGKISVIQKQITKNRQLLAELSSLTGVVIETEALKNLCDLAESYTGAAKSSGAGGGDCGIVIFRQKSGILPLMTAWEKDGITPLPLHVYTYGQKECKEKHEGHHHHHH | soluble
MSLFFHSDVLSVSELNAFAKSLLENHLAGLWIAGEVSNLTRAASGHYYFSLKDSRAQVRCAMFKGAAVRLAKPLKEGDHIEVSGKISIYEARGEFQITVNEVRLKGLGQLYEAYERLKAQLQAEGAFAAERKKPLPVRPQCIGIVTSLAAAALRDVVTTLKRRAPEIPVIVYPTPVQGAGSELQIAQAIKTASQRAECDVLIVCRGGGSIEDLWAFNEEPVVRAIESCTVPVVSGVGHETDFTLADFVADMRAPTPTGAAELVSPNRQESLHRLAQAQCRLKTVLEQRYFDASQKLDWLARQIRHPRQKLDEQRASIGKLAQTLSYSMTQNVRTHTARFERQTQALKHCRPDVSVCKKNIDRFQTALSHAFHQLLTHRRQSLTAQAALLEAVSPQHILERGFSVVKNTRGQVIRNADVLKQGQKLHIIFADGETDVRVSKEQGQQDLFDCIEGHHHHHH | not soluble
MSLFIHIVGPGDSLFSIGRRYGASVDQIRGVNGLDETNIVPGQALLIPLYVYTVQPRDTLTAIAAKAFVPLERLRAANPGISPNALQAGAKITIPSISNYIAGTLSFYVLRNPDLDRELINDYAPYSSSISIFEYHIAPNGDIANQLNDAAAIETTWQRRVTPLATITNLTSGGFSTEIVHQVLNNPTARTNLVNNIYDLVSTRGYGGVTIDFEQVSAADRDLFTGFLRQLRDRLQAGGYVLTIAVPAKTSDNIPWLRGYDYGGIGAVVNYMFIMAYDWHHAGSEPGPVAPITEIRRTIEFTIAQVPSRKIIIGVPLYGYDWIIPYQPGTVASAISNQNAIERAMRYQAPIQYSAEYQSPFFRYSDQQGRTHEVWFEDVRSMSRKMQIVREYRLQAIGAWQLTLAEGHHHHHH | soluble
MSLFTGENWDPYEWAKVFKKSGAKFVVLVAEHHDGFALWESNYTRWCATKIGPKRDIVRELKEAVEGQGLIFGISYHRAEHWWFFDQGMKIESDVKDPRYLDLYGPAQSASLNPRDPPSLDNVQPNDEFLMDWLLRIVEAVEKYRPWLVYFDWWIANPSFQPYLKAFASYYYNRSYKWGIEPVIIYKQGAFGEGTAIPDLAERGTIKNVYPSTWLADTSIDYKSWGYIKDAEYKLPSVILSHLGDVVSKNGVFLLNIGPKADGTIPEEAKRILLDVGDWLNVNGEAIFGSKPWRVYGEGPSGINEGGFFTERKITLGYQDVRYTVKDYYPRQRHIYAILFGKPKEITLRSFMKNLKLIEEAVIVDVSRLDGKGKLEWSLSDEGLKIKIEEVIRAPLVIRVILDYREGHHHHHH | not soluble
MSLGAMCFYHYWFLGKQLLEKPAEILLENKEINMPFLFSWANEPWTRAWDGSHRNVLMPQSYGTEADWEKHFNYLKPFFEDERYLKHDGKPIFIIYRTANFALCNEWISCWRELSKNTSFKDIHFVSSYTSFENDPRKLDFDAHLYFEPMCTVGHNLGYFNKKIKKINARLKRVINPKVWTTYVENTLQYDYLWEKILKKKINKTQYPGAFVDWDNSARKKSRALVIHGGSPKKFGLYLDKLYKRSIENNCPFLFINAWNEWAEGTYLEPDEKNKYSYLEELKKVIEKYEVEGHHHHHH | not soluble
MSLGARELHAHLKGGAATVCRCWAVTRRDGTVFGFTDHDRDLTFEGRLFRAETGLTSSALQQTTGLSVDNAETVGALSHVSVTEADLLAGRFDGAEVLAWLVNWADVSERLLQFRGTLGEITHSGGRFRAELRGLTEALNQPQGRVYQRSCQAVLGDRACGFDLSAEEFATERAVETVVGRQSFSFEGLHSFPDRWFEQGRLVVMTGEAAGAMGVIKSDRRRGEVRTVELWEALGPQITVGDRVRLEAGCDRMAETCRLKFNNLRNFRGFPHLSGEDWLSAYPAATGTHDGGSLWEEGHHHHHH | soluble
MSLGDAADPREMRKTFIVPAIKPFDHYDFSRAKIACNLAWLVAKAFGTENVPEELQEPFYTDQYDQEHIKPPVVNLLLSAELYCRAGSLILKSDAAKPLLGHDAVIQALAQKGLYVTDQEKLVTERDLHKKPIQMSAHLAMIDTLMMAYTVEMVSIEKVIACAQQYSAFFQATDLPYDIEDAVMYWINKVNEHLKDIMEQEQKLKEHHTVEAPGGQKEGHHHHHH | soluble
MSLGDQYTYYMNEKEFSDFKEKSQGNYMGIGIQVAVKDGKIVVISPIQGGPAEKAGIKTGDIILKVNGEPVSGNELDKAVSMMKGTTKENIKLTLYREGHHHHPPLIRIRAPSTSLRPHSSTTTTTTEIRLLTKPERKLSWLLPPLSNN | soluble
MSLGDSETIRILVSTDNHVGYNERDPIRGDDSWKSFHEVMCLAKQHDVDMVLLAGDLFHENKPSRKSMYQVMRSIRMNCLGDKPCELQLLSDASENFQGAFNHVNYEDLDINVGIPIFSIHGNHDDPSGEGHLAALDILQVSGLLNYYGRTPESDNIQLKPVLLQKGRTKLALYGMSNVRDERLFRTFRDGKVKFFRPSVQKEDWYNLICVHQNHHAYTETGYLPENFLPEFLDLVIWGHEHECLINPREGHHHHHH | soluble

Source: the DeepSol protein solubility set
